In patent US20260263607A1, “INHIBITION OF MYC USING HIGH-DENSITY BRUSH POLYMERS” (Northwestern University, priority 2022, published 2026):
Ends that are not written are not given here. norbornene = norbornene on aminohexanoic acid N-terminal cap, polymerised by ROMP; Ahx = NCCCCCC(=O)O

How the values were obtained:
MYC T58A = molecular target: T1, MYC T58A (Homo sapiens, UniProt P01106, T73A); assay: Western blot of MYC T58A in PC-3 MYC^T58A cells; format: cell-based; details: 6 h; 2.5 and 5 μM HYDRAC, FIG. 31C
T1 construct: expressed in transfected cells
Description: Western BlotAnalysis: Cells were lysed in RIPA (Sigma) lysis buffer containing 1×Halt™ Protease and Phosphatase Inhibitor Cocktail (ThermoFisher). Protein concentration was measured by Bio-Rad Bradford reagent. Protein samples were prepared by addition of 4×Laemmli Sample buffer (Bio-Rad) and 2-mercaptoethanol (Bio-Rad) and resolved on 4-12% SDS-PAGE (Sodium dodecyl sulfate-polyacrylamide) gels, which were subsequently transferred to PVDF membranes (Bio-Rad) using Trans-Blot Turbo transfer buffer (Bio-Rad) and a Trans-Blot Turbo Transfer System (Bio-Rad). Membranes were blocked for 1 h at room temperature with 5% blotting-grade blocker non-fat dry milk (Bio-Rad), followed by overnight 4° C. incubation with the appropriate primary antibody and 1 h room temperature incubation with an anti-rabbit or anti-mouse IgG (H+L)-HRP conjugate (Bio-Rad) secondary antibody. Blots were imaged using Supersignal West Femto Maximum Sensitivity Substrate detection system (Thermo) and the ChemiDoc Imaging System (Bio-Rad). The following primary antibodies were used: c-Myc (Y69) (Abcam #ab32072), Streptavidin-HRP (PerkinElmer NEL750), GAPDH (Cell Signaling #3683) and Actin (Cell Signaling #5125). Quantification analyses were performed by Biorad ChemiDoc Imager and Bio-Rad Image Lab software. […]

full length Max = full length Max (Homo sapiens, UniProt P61244); assay: Circular dichroism, binding to Max; details: 1 μM PLP plus 5 μM Max
Description: (§1) Circular Dichroism (CD) Spectroscopy: CD spectra were obtained on a JASCO J-815 spectrometer equipped with a Peltier sample holder for temperature control. Polymer samples were dissolved in buffered solvent to concentrations of approximately 1 μM, and placed into a 1 cm quartz cuvette (Hellma). Protein samples were measured at 5 μM. All samples were equilibrated at room temperature for at least thirty minutes prior to measurement, with mixtures (i.e. protein and polymer combinations) being generally equilibrated for 12 hours prior to measurement. Spectra were obtained using a scan speed of 10 nm/min, using a 1 nm bandwidth, 4 sec response time, and with three accumulations. Background spectra of solvent were obtained prior to measurement of the sample solutions, and subtracted from the sample spectra using JASCO Spectra Analysis. For melting experiments, the temperature was varied between 2° and 91° C. with steps of 1° C./min, while measuring the ellipticity at 222 nm with a 2 nm bandwidth.
(§2) It has been previously reported (Blum et al., Kammeyer et al., and Berger et al., Mussel Adhesive-Inspired Proteomimetic Polymer, Journal of Am. Chem. Soc., 144, 4383-4392 (2022)) that peptide brush polymers with a DP around 15 synthesized in a similar manner maintain payload bioactivity and readily enter cells. As such, initial HYDRAC designs revolved around this molecular size range. […]

b-HLH-LZ domain of Myc = molecular target: T2, b-HLH-LZ domain of Myc (Homo sapiens, UniProt P01106); assay: Circular dichroism, dimerization with Myc b-HLH-LZ; format: binding; details: 1 μM PLP plus 5 μM bHlH
T2 construct: dimerize with either the b-HLH-LZ domain of Myc or full length Max
Description: as §1, §2

[1] = molecular target: T3, Myc protein from PC-3 cell lysates (Homo sapiens, UniProt P01106); assay: In vitro pull down assay with biotin-terminated PLPs; format: binding; details: PC-3 cell lysate, 10 μM or 2 μM biotinylated PLPs, FIG. 5B
T3 construct: Degradation of endogenous Myc protein in PC-3 cells was explored; endogenous in cells; host or cells: PC-3
Description: In vitro Pull Down Assay: To confirm PLP direct binding to endogenous Myc protein in cell lysate complex, biotin conjugated PLP was synthesized. Collected PC-3 cell pellet (2 million cells per pulldown condition) was suspended in 300 μL pulldown lysis buffer (pH 7.4 50 mM Tris-HCl, 150 mM NaCl, 1 mM EDTA, 0.1% IGEPAL nonionic detergent+1× Halt protease/phosphatase inhibitor cocktail) and lysed by repeat (3×) freeze-thawing in liquid nitrogen. The lysed cell pellets were spun at 4° C. for 15 minutes at 15,000 rpm on a Eppendorf 5424R centrifuge. The collected supernatants were pre-cleared with Pierce streptavidin magnetic beads (Thermo, 88817) for 1 hr at 4° C. For Examples 7 and 10, around 300 μg was applied to each sample and incubated with 5 μM of HYDRAC, scrambled HYDRAC, 10 μM of H1 homopolymer, scrambled H1 homopolymer or D-Biotin on a rotator over night at 4° C. […]
as §2, with “cells.” for “cells. As such, initial HYDRAC designs revolved around this molecular size range.”
(§3) This example provides data supporting toxicity of cancer cells in vitro after treatment with Myc-targeted PLPs. […] Cells were treated with PLP 5.2 for 3 days and cellular viability was recorded. […]

[2] = test system: PC-12 Pheochromocytoma (which lack the Myc dimerization partner Max) cell lines; assay: PC-12 cell viability; format: cell-based; details: treated for 3 days, FIG. 5A
Description: (§4) Cell Culture: PC-3, PC-12, A549 cells were obtained from ATCC; Mouse MycCaP cells were the kind gift of Charles Sawyers (Memorial Sloan-Kettering Cancer Centre). All cells were authenticated and tested as mycoplasma-free. PC-3 and A549 cells were grown in F12K (Gibco) medium; MycCaP cells in DMEM medium (Gibco), all supplemented with 10% heat-inactivated fetal bovine serum (FBS, Gibco). PC-12 cells were grown in F-12K medium (ATCC) with 5% heat-inactivated FBS and 10% heat-inactivated horse serum (Thermo). All cells were cultured in 1% Penicillin-Streptomycin (10,000U/ml, Life Technologies) and 5% CO2 in a humidified incubator at 37° C.
(§5) Cell Proliferation Assays: Cell viability was estimated using the CellTiter-Glo® Luminescent Cell Viability Assay (Promega). […] After 3 to 5 days following the treatment, CellTiter-Glo reagent was added mixed 1:1 vol/vol with fresh media, plates incubated for 10 minutes on a shaking rotator followed by 10 minutes without shaking at room temperature (protected from light using aluminum foil) and luminescence was measured using plate reader (Perkin Elmer Victor 3V).
as §3

[3] = test system: PC-3 prostate cancer cells; assay: PC-3 cell viability / toxicity (CellTiter-Glo); format: cell-based; details: PC-3, 72 hours treatment, FIG. 2D; read-out: IC50 (concentration of peptide which exhibited 50% cell viability for PC-3)
Description: as §4, §5
This example evaluates the toxicity of Myc-targeting PLPs in the PC-3 cancer cell line. • Example 3.1—Generation of Block and Statistical Copolymers. […] Cellular viability was assessed via the Cell Prolferation Assays protocol provided above. • Example 3.2—Results. […]

[4] = molecular target: endogenous Myc protein of PC-3 cells (in PC-3 cell lysate or in the cells) (UniProt P01106 1-454, limits assumed); assay: cell-based or functional assay
endogenous Myc protein of PC-3 cells (in PC-3 cell lysate or in the cells), sequence (P01106 whole entry): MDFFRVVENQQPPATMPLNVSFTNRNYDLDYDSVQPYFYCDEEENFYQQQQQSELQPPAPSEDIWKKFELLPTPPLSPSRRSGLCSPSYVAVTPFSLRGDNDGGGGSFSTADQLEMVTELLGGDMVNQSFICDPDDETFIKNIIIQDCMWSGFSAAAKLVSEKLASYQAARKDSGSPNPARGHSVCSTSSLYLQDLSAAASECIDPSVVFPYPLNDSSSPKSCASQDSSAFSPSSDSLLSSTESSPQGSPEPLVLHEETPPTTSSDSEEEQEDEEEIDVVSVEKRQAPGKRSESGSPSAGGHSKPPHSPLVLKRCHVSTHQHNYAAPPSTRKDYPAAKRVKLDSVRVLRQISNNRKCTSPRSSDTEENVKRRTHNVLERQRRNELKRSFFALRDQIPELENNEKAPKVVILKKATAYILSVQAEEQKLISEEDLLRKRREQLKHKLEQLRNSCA

full length Max, sequence (P61244 whole entry): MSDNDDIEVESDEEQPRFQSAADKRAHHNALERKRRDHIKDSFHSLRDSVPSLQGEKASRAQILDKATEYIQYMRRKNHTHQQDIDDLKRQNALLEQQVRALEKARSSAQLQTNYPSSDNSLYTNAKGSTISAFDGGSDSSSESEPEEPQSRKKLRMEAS
T1 sequence (P01106 16-454 T73A): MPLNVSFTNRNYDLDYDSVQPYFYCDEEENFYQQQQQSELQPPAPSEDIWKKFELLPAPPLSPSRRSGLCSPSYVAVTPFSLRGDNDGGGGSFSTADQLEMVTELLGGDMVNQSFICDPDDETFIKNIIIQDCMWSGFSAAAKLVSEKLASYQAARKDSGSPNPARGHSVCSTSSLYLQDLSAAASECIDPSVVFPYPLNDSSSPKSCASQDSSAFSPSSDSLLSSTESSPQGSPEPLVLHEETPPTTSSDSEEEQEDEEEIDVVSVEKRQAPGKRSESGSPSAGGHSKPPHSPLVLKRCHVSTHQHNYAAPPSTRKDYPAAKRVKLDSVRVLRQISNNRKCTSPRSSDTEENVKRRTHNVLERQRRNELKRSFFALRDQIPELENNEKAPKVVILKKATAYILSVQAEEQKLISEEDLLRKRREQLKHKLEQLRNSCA
T3 sequence (P01106 whole entry): as the sequence (P01106 whole entry) above
T2 sequence (P01106 368-454 limits assumed): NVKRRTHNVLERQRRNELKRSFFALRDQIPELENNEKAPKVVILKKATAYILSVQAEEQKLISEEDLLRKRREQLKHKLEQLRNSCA

Molecule: Cn1nc(C(F)(F)F)cc1-c1ccc(OCc2ccc(Cl)cc2)c(-c2ccc(Cl)c(C(F)(F)F)c2)c1O [MYCi975]
- MYC^T58A protein level (MYC T58A): only minor changes in mutant MYC levels

Molecule: H16-stat-RRRG7 (peptide 1 NELKRAFAALRDQI) [H1-R PLP]
- Max binding (CD) (full length Max): limited Max/HYDRAC binding
- heterodimerization with Myc b-HLH-LZ (CD) (b-HLH-LZ domain of Myc): selective Myc/HYDRAC heterodimerization in the low micromolar range

Molecule: H17-stat-RRRG6 (peptide 1 NELKRAFAALRDQI) [PLP 5.2]
- Myc pull down [1]: capable of direct endogenous binding to Myc protein
- IC50 [2]: 10.2 µM

Molecule: NELKRAFAALRDQI-NH2 [unpolymerized H1 peptide, NELKRAFAALRDQI, reference compound]
- IC50 [3]: 700 µM

B1: PLP 5.2, H17-stat-RRRG6 (Example 9.4, FIG. 5A) (other)
peptide 1: {norbornene-Ahx}-NELKRAFAALRDQI-NH2
peptide 2: {norbornene-Ahx}-RRRG-NH2
modifications: also: polymerised through N-terminal norbornene by ROMP into polymer backbone, statistical copolymer of both peptides
- IC50 of PC-3 cell viability after 3 days of treatment (CTGlo) [4]: 0.49 µM
